The results in this text go back to the nanobody polyreactivity screen of Harvey et al. (2022).

This series is described as follows: yeast display, Sf9 membrane polyspecificity reagent, FACS + sequencing; frameworks hold sequencing errors. The method in brief:
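Synthetic nanobody libraries on Saccharomyces cerevisiae BJ5465 were galactose-induced for 36–48 hours, stained 1 hour at 4 °C with 10% biotinylated, detergent-solubilized Sf9 membrane reagent and enriched on streptavidin microbeads. FACS then separated cells into low and high (top ~1%) gates by anti-HA (expression) and streptavidin (reagent binding) fluorescence. Genes were colony-PCR amplified, MiSeq 2 × 250 sequenced and CDR-length filtered. A clone's polyreactivity label is that of its gate of origin.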
Regarding “QDQLVESCGGLVQARGSLRLSCAASGFTFRYNAMGWYRQAPGKERELVAAITGSTGTTYYADSVKGRFTISRDNAKNTVYLQMNSLKPEDTAVYYCAATFRDQHGSLYGYWGQGSQVTVSS”, the “polyreactivity (PSR sort gate)” value is reported as “high polyreactivity”. Regarding “QDQLVESGAGLVQAAGSLRLSCAASGSTFDTYALGWYRQAPGKERELVAAISVSGTSTSYADSVKGRFTISRDNAKNTVYLQMNSLKPEDTAVYYCNATDFSRNPGYARPEYDYWGQGTHVTVSS”, the “polyreactivity (PSR sort gate)” value was “low polyreactivity”.

Turning to “QDQLVESGAGLVQAGGSLRLSCAASGRIFDRYAMGWYRQAPGKEREMVAAITTSSGGSTYYADSVKGRFTISRDNAKNTVYLQMHSLKPEDTAVYYCAADRRYNVIGEFGYWGQGTQVTVSS”, the “polyreactivity (PSR sort gate)” value is given as “low polyreactivity”. Take “QDQLVESGGCLDQAGCSLRLSCAASGSIFYYNAMGWSRQAHGKESEFVATITNSGGRTYDADSVKGRFTISRDNAKNSVYLQMNSLKPEDTAVYYCNADVHRFSGNGYRYYYWGQGTQVTVSS”: the “polyreactivity (PSR sort gate)” value was “low polyreactivity”. Regarding “QDQLVESGGCLVQAGGSLRLSCAASGSIFYVNAMGWYRPAPRKERELVAGISRSGGRTYYADSVKGRFTISRDNAKNTVYLHMNSLIPEDTAVYYCAALVGRIWYGLDYWGQGTQVTVSS”, the “polyreactivity (PSR sort gate)” value is reported as “high polyreactivity”.

Regarding “QDQLVESGGCLVQAGGSLRLSCAASGSTFDTNSMGWSRQAPGKERELVAAISGSGVRTYYADSVKGRFSISRDNAKITVYLQMNRLNPEDTAVYYCAARGSRRGTWYDYWGQCTQVTVSS”, the “polyreactivity (PSR sort gate)” value is “high polyreactivity”. For “QDQLVESGGGIVQAGGSLRLSCAASGIIFGFYAMGWYIKAPGKERELVASISYSGGRTYYADSVKGRFTISRDNAKNTFYLQMISLKPEDTAVYYCAARLYWIPPSPSRYDYWGQGTQVTVSS”, the “polyreactivity (PSR sort gate)” value was “high polyreactivity”. As for “QDQLVESGGGIVQAGGSLRLSCAASGRTFVAYAMGLYRQAPGKEREFVARISSGGSTYYADSVKGRFTISRDNAKNTVYLQMNSLKPEDTAVYYCAADRGPYFVPWRRYDYWGQGTQVTVSS”, the “polyreactivity (PSR sort gate)” value was “low polyreactivity”.

Turning to “QDQLVESGGGIVQAGGSLRLSCAASGRTFYRYAMGWYRQAPGKERELVATISGGGSTNYADSVKGRFTISRDNAKNTVYFQMNSLKPEDTAVYYCAVRLRPPYYLPYYYWGQGTQVTVSS”, the “polyreactivity (PSR sort gate)” value is listed as “high polyreactivity”. For “QDQLVESGGGLDQAGGSLRLSCAASGNIFYSYAMGCYRQAPGKERELVAAISSSGGRTYYADSVKGRFTISRDNAKNTVYLQMNSLKPEDTELYYCNAYVQVMRYLFGRPTVYPYDYWGQGTQVTVSS” the value was “high polyreactivity”; for “QDQLVESGGGLDQAGGSLRLSCAASGRIFYPYTMGWYRQAPGKERELVAANTRSAASTHYADSVKGRFTISRDNAKNTVYLQMNSLKPEDTAVYYCAADDRGSSYGHFTVEYGYWGQGTQVTVSS”, “low polyreactivity”; for “QDQLVESGGGLDQAGGSLRLSCAASGRILIIYAMGWYRQAPGKERELVARITYTGGRTYYADSVKGRFTISRDNAKNTVYLQMTSLKPEDTAVYYCATVWSRSDSSSHYDYWGQGTQVTVSS”, “low polyreactivity”.

Turning to “QDQLVESGGGLDQAGGSLRLSCAASGRTFRKYAMGWYSQAPGKERELVAAITTSGARTYYADSVKGRFTISRDNAKNTVYLQMNILKPDDTAVYYCNAVSPYDGIEFDYWGLGTQVTVSS”, the “polyreactivity (PSR sort gate)” value is “high polyreactivity”. As for “QDQLVESGGGLFQAGGSLRLSCAASGFTFTSYNMGWYRQAPGKEMELVAGISLSGGDTSYADSVKGRFTISRDNAKNTVYLQMNSMKPEDTAVYFCAKSYVNYAFDSWGHGTQVTVSS”, the entry is “high polyreactivity”; as for “QDQLVESGGGLGQAGGSLRLSCAASGSTFNNYAMGWYRQAPGKERELVAVITKRGGSTYYADSVKGRFTISRDTAKNTVHLQMNSLKPEDTAVYYCPASSLYDGYWGQGTQVTVSS”, “high polyreactivity”; as for “QDQLVESGGGLGQAGGTLRLSCAASGNTFTFNTMGWHRQEPGKEREVVAVISRSGGSTYYSDSVKGRITISRDNAKNTVYLQMNSLKPEDTAVYYCAAQGYWYGFVPYDYWGQGTQVTVSS”, “high polyreactivity”.
